Consider three substances from paper PMC8519427.

pKd: −log10 of the molar value.

The target in the experiment is human α-SNAP with an Avitag and a C-terminal 6xHis tag (human) (UniProt P54920). Nature of the experiment: BLI; Octet RED96, 25°C; 0.25 μM biotinylated α-SNAP loaded on streptavidin biosensor tips; analyte: purified Orai1 or Stim1 fragments at varying concentrations; PBS with 2 mg/ml BSA and 0.02% Tween-20; association 5 min, dissociation 10 min; double referencing; global fit to the 1:1 or 2:1 binding model.
Chain of human α-SNAP with an Avitag and a C-terminal 6xHis tag (human) (P54920 whole entry, the tested form may be a part): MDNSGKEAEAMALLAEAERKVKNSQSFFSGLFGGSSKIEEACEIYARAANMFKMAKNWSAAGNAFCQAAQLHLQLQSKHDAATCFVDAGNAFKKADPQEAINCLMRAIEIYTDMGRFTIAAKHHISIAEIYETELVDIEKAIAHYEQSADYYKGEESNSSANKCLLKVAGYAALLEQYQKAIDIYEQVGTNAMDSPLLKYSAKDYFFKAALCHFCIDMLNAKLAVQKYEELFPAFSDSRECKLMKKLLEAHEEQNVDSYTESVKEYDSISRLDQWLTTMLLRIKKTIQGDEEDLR

By pKd is commonly meant the negative decadic logarithm of the Kd, by convention in mol/L. Higher therefore signals a small Kd. As usually defined, the koff is the rate constant with which the complex falls apart. A low value points to a long-lived complex. The kon is the second-order rate constant of association. “purified untagged Orai1 1–103 (from UniProt Q96D31 1-103) (domain or fragment)” had a pKd of 6.12, a dissociation rate constant (koff) of 0.000117 s⁻¹ and an association rate constant (kon) of 154 M⁻¹ s⁻¹.

“commercially synthesized Orai1 245–292 peptide (from UniProt Q96D31 245-292)”: the KD1 (2:1 binding model, site 1) was determined as 198 nM; the KD2 (2:1 binding model, site 2) was determined as 0.715 µM; the pKd is 6.43; the off-rate constant (koff) stood at 0.000506 s⁻¹. This substance came in with a koff1 (2:1 binding model, site 1) of 5.62e-05 s⁻¹; a koff2 (2:1 binding model, site 2) of 0.0279 s⁻¹; a kon of 1370 M⁻¹ s⁻¹; a kon1 (2:1 binding model, site 1) of 284 M⁻¹ s⁻¹. Besides, the kon2 (2:1 binding model, site 2) is 39000 M⁻¹ s⁻¹.

Turning to “purified untagged Orai1 245–292 (from UniProt Q96D31 245-292) (domain or fragment)”, the KD1 (2:1 binding model, site 1) is 314 nM; the KD2 (2:1 binding model, site 2) turned out to be 202 µM; the pKd was 6.26; the dissociation rate constant (koff) came to 0.000595 s⁻¹. Moreover, the koff1 (2:1 binding model, site 1) is 0.000213 s⁻¹; the koff2 (2:1 binding model, site 2) is 0.0306 s⁻¹; the kon was 1080 M⁻¹ s⁻¹; the kon1 (2:1 binding model, site 1) is 678 M⁻¹ s⁻¹. In addition, the kon2 (2:1 binding model, site 2) is 152 M⁻¹ s⁻¹.
